Results reported in IntAct's records for PubMed 18354483.

B1: RE1-silencing transcription factor (Homo sapiens), Q13127 (parent)
chain: MATQVMGQSSGGGGLFTSSGNIGMALPNDMYDLHDLSKAELAAPQLIMLANVALTGEVNGSCCDYLVGEERQMAELMPVGDNNFSDSEEGEGLEESADIKGEPHGLENMELRSLELSVVEPQPVFEASGAPDIYSSNKDLPPETPGAEDKGKSSKTKPFRCKPCQYEAESEEQFVHHIRVHSAKKFFVEESAEKQAKARESGSSTAEEGDFSKGPIRCDRCGYNTNRYDHYTAHLKHHTRAGDNERVYKCIICTYTTVSEYHWRKHLRNHFPRKVYTCGKCNYFSDRKNNYVQHVRTHTGERPYKCELCPYSSSQKTHLTRHMRTHSGEKPFKCDQCSYVASNQHEVTRHARQVHNGPKPLNCPHCDYKTADRSNFKKHVELHVNPRQFNCPVCDYAASKKCNLQYHFKSKHPTCPNKTMDVSKVKLKKTKKREADLPDNITNEKTEIEQTKIKGDVAGKKNEKSVKAEKRDVSKEKKPSNNVSVIQVTTRTRKSVTEVKEMDVHTGSNSEKFSKTKKSKRKLEVDSHSLHGPVNDEESSTKKKKKVESKSKNNSQEVPKGDSKVEENKKQNTCMKKSTKKKTLKNKSSKKSSKPPQKEPVEKGSAQMDPPQMGPAPTEAVQKGPVQVEPPPPMEHAQMEGAQIRPAPDEPVQMEVVQEGPAQKELLPPVEPAQMVGAQIVLAHMELPPPMETAQTEVAQMGPAPMEPAQMEVAQVESAPMQVVQKEPVQMELSPPMEVVQKEPVQIELSPPMEVVQKEPVKIELSPPIEVVQKEPVQMELSPPMGVVQKEPAQREPPPPREPPLHMEPISKKPPLRKDKKEKSNMQSERARKEQVLIEVGLVPVKDSWLLKESVSTEDLSPPSPPLPKENLREEASGDQKLLNTGEGNKEAPLQKVGAEEADESLPGLAANINESTHISSSGQNLNTPEGETLNGKHQTDSIVCEMKMDTDQNTRENLTGINSTVEEPVSPMLPPSAVEEREAVSKTALASPPATMAANESQEIDEDEGIHSHEGSDLSDNMSEGSDDSGLHGARPVPQESSRKNAKEALAVKAAKGDFVCIFCDRSFRKGKDYSKHLNRHLVNVYYLEEAAQGQE

Variants of: B1
Conditions: with fbw1a_human BTRC

effect of a mutation on the interaction | Variant
disrupting interaction strength | S1030A
disrupting interaction strength | S1024A
disrupting interaction strength | S1027A
